Results published in patent publication US20250152729A1 (CANCER RESEARCH TECHNOLOGY, published 2025).

Key:
[1] = molecular target: T1, human SEMA4B expressed on expi293 cells (human, UniProt Q9NPR2 44-837); test: Mirrorball direct binding, dilution series on expi293 cells transiently transfected with human SEMA4B, anti-human Alexa Fluor 647
T1 construct: whole, on cells
T1 sequence (looked up): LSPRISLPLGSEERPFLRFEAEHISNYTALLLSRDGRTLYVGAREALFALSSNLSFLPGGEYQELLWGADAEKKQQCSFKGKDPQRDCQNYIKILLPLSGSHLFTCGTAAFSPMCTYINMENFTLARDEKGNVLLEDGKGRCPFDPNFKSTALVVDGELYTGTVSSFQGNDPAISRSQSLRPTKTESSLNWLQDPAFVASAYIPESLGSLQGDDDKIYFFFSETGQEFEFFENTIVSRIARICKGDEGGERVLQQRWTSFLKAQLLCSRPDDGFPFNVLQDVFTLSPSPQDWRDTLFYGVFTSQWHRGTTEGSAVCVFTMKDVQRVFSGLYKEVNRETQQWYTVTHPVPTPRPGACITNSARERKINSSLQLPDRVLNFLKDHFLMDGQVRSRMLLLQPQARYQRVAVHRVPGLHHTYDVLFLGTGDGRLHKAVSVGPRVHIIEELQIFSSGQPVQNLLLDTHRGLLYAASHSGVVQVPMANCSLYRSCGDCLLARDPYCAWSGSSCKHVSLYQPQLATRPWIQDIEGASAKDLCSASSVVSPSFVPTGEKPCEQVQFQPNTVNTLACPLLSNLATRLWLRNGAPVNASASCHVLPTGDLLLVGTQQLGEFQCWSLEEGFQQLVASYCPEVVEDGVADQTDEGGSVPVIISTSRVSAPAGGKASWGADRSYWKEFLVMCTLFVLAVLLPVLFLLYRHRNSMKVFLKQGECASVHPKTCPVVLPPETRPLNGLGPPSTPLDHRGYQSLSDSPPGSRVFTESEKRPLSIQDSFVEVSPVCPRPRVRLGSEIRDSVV
From the text: Hits from the primary screening were re-formatted into the human Alya IgG1 vector and re-expressed and purified as described in section 4.1. In addition, a single clone was identified that contained an Asparagine deamidation motif (Asn Gly) within its VHCDR2. This potential sequence liability was de-risked by synthesising de novo two clonal variant VH genes (Asn Ala and Gln Gly) and cloning these sequences into the human Alya IgG1 expression vector. To determine the specificity profile of each purified human Alya IgG1, a dilution series was tested for binding to human SEMA4A, mouse SEMA4A, cyno SEMA4A, human SEMA4B and mock transfected cells (transient transfections set up in expi 293 cells.) The five assays employed methods described in section 2.3, using the appropriate cells and substituting the un-purified scFv periplasmic preparation with the recombinant human Alya IgG1 dilution series. Data was analysed as Count x median mean intensity (x FLU).

[2] = molecular target: T2, recombinant human SEMA4A AviHis10, biotinylated (human, UniProt Q9H3S1 33-683, biotin on the Avi tag (BirA)); test: BLI (OctetRED), biotinylated SEMA4A on streptavidin tip, IgG as analyte, 1:1 model; KD(observed) IgG
T2 construct: The text says amino acids 33-683 of Q9H3S1 with C-terminal Avi tag and His10 tag; also called avi-SEMA4A-His10
T2 sequence: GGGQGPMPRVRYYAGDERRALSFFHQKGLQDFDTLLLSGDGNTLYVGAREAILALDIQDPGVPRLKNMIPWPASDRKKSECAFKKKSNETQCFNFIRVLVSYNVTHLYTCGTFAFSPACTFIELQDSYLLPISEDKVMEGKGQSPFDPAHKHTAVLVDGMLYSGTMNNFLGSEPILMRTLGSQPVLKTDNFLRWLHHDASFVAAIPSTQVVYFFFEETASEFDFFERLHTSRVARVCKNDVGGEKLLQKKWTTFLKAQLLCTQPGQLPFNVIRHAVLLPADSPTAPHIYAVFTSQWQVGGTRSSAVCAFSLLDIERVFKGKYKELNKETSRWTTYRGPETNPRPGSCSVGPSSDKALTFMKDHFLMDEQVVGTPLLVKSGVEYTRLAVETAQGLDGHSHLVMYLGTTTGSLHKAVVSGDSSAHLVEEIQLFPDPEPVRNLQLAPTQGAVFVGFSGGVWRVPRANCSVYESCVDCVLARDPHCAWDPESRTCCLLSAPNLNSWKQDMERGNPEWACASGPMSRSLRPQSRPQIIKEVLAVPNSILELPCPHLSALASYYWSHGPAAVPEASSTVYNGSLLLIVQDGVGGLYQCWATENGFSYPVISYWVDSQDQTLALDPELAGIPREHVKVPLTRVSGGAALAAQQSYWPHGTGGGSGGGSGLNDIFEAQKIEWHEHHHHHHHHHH
Protocol: An Octet Kinetics buffer (PBS containing 0.01% (v/v) BSA and 0.002% (v/v) Tween20) is typically used as the diluent buffer for the analyte samples and as the flow buffer during the dissociation phase. The experimental data is recorded as shift in interference pattern (nm) over time, which is directly proportional to the optical thickness at the biosensor tip, which in turn is an approximate measure of the mass of analyte bound. The proprietary Octet Data Analysis software package can then be used to process data and fit binding models to the data sets. Returned association (ka, M-1 s-1) and dissociation (kd, s-1) rate constants allow calculation of dissociation (KD, M) affinity constants.
The affinity of binding between the analytes (humanised and phage display derived IgGs as human Alya IgG1s and Fabs) and human SEMA4A and cynomolgus SEMA4A, was estimated using assays in which the biotinylated SEMA4A antigen was captured on a streptavidin sensor tip. A fresh sensor tip was used for each measurement and no regeneration was used. A series of dilutions of the lead Fabs and human Alya IgG1s (3.25-240 nM) were individually placed in contact with the ligand surface for a sufficient amount of time to observe sensorgrams that could be fitted to an appropriate binding model with confidence (typically 5 minutes), followed by an appropriate length of dissociation time (typically 10 minutes). Blank reference (0 nM analyte) data were subtracted from each dataset to reduce the impact of any buffer artefacts or non-specific binding effects. A 1:1 binding model was then fitted simultaneously to the data from each analyte titration using the Octet Evaluation software (Table 8).

B1: mouse 5E3 expressed as human IgG1 Alya (antibody, V domains shown)
VH: QVQLQQPGAELVMPGASVKMSCKASGYTFTDYWMHWVKQRPGQGLEWIGAIDTSDSYTSYNQKFKGKATLTVDESSSTAYMQLSSLTSEDSAVYYCARDYGNFYYYAMDYWGQGTSVTVSS
VL: QAVVTQESALTTSPGETVTLTCRSSTGAVTTSNYANWVQEKPDHLFTGLIGGTNNRAPGVPARFSGSLIGDKAALTITGAQTEDEAIYFCALWYSNHWVFGGGTKLTVL
notes: Mouse variable domains on human IgG1 Alya constant (pEU1.22; 239iCys and S442C, EU numbering); purified, unconjugated; also called 5E3 IgG1 Alya
B1: no binding (tested: log (M) -8 (1e-8 M)) [1].

B2: 5Hg1-5Lg1 human Alya IgG1 (antibody, V domains shown)
VH: QVQLVQSGAEVKKPGASVKVSCKASGYTFTDYWMHWVRQAPGQGLEWMGAIDTSDSYTSYNQKFKGRVTMTRDTSTSTVYMELSSLRSEDTAVYYCARDYGNFYYYAMDYWGQGTLVTVSS
VL: QAVVTQEPSLTVSPGGTVTLTCRSSTGAVTTSNYANWFQQKPGQAPRTLIYGTNNRAPWTPARFSGSLLGGKAALTLSGAQPEDEAEYYCALWYSNHWVFGGGTKLTVL
notes: Humanised 5E3; human IgG1 Alya constant (239iCys, S442C, EU), lambda light chain; purified, unconjugated
Binder B2 has a Kd [2] of no more than 2 nM.

B3: 5Hg2-5Lg2 human Alya IgG1 (antibody, V domains shown)
VH: QVQLVQSGAEVKKPGASVKVSCKASGYTFTDYWMHWVRQAPGQRLEWMGAIDTSDSYTSYNQKFKGRVTITRDTSASTAYMELSSLRSEDTAVYYCARDYGNFYYYAMDYWGQGTLVTVSS
VL: QAVVTQEPSLTVSPGGTVTLTCRSSTGAVTTSNYANWFQQKPGQAPRTLIYGTNNRAPWTPARFSGSLLGGKAALTLLGAQPEDEAEYYCALWYSNHWVFGGGTKLTVL
notes: as for B2
B3 gave a Kd [2] of no more than 2 nM.

B4: C0120905 human Alya IgG1 (antibody, V domains shown)
VH: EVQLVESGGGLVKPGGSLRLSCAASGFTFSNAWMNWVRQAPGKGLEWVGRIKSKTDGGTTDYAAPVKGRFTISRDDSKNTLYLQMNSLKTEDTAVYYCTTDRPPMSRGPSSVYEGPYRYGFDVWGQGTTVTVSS
VL: NFMLTQPHSVSESPGKTVTISCTGSGGNIVDNFVQWHQQRPGSAPRTVIYEDDQRPSGVPDRFSASVDSSSNSGTLSISGLKTEDEADYYCQSYDGANRWVFGGGTKLTVL
notes: Fully human, phage display derived; human IgG1 Alya constant (239iCys, S442C, EU); unconjugated
In the case of B4, the binding result [1] is reported as “no binding (tested: log (M) -8 (1e-8 M))” and the Kd [2] is reported as 10 nM.

B5: C0120906 human Alya IgG1 (antibody, V domains shown)
VH: EVQLVQSGPEVKKPGASVKISCKASGYKLNDPGVHGVSWVRQAPGQGLEWMGWISTLNGDTRYAQKFQGRVTMATDSSTSTIYMDLRSLKSDDTALYYCARDDYTAIFDFWGRGTLVTVSS
VL: QSVLTQPPSVSVAPGQTASITCGGSNIGSQSVHWYQQKPGQAPVLVVYDDSDRPSGIPERFSGSKSGNTASLILSRVEAGDEADYYCQVWDSSTDHHVFGTGTKVTVL
notes: as for B4
In the case of B5, the binding result [1] is reported as “no binding (tested: log (M) -8 (1e-8 M))” and the Kd [2] is reported as 11 nM.

B6: C0120903 human Alya IgG1 (antibody, V domains shown)
VH: EVQLVQSGAEVKKPGSSMKVSCKASGGTFNSYTINWVRQAPGQGLEWVGGFIPIFGTADYAQKFHGRVAITADESMSTAYMELSSLRSEDTAVYYCARAPLGSEPFDYWGQGTMVTVSS
VL: SYVLTQPPSVSVAPGQTARITCGGNNIGSKSVHWYQQKPGQAPVLVVYDDSDRPSGIPERFSGSNSGNTATLTISRVEAGDEADYYCQVWDSSSDHLVFGGGTKLTVL
notes: as for B4
B6 was tested, and the binding result [1] was “no binding (tested: log (M) -8 (1e-8 M))” and the Kd [2] was 6 nM.

B7: C0120914 human Alya IgG1 (antibody, V domains shown)
VH: QVQLQESGPGLVKPSETLSLTCTVSGGSVSSGRYDWSWIRQPPGKGLEWIGHIYYTGITDYNPSLRSRVTISADKPKNQFSLKLNSVTAADTAVYYCARGPFFDPWGQGTMVTVSS
VL: QSVLTQPPSVSVAPGQTASLTCGANNIGSKSVQWYQQKPGQAPVLVVYDGSDRPSGIPDRFSGSSSENTATLTISRVEAGDEADYYCQLWDSVTDRPVFGGGTKVTVL
notes: as for B4
In the case of B7, the binding result [1] is reported as “no binding (tested: log (M) -8 (1e-8 M))” and the Kd [2] is reported as 21 nM.

B8: C0120917 human Alya IgG1 (antibody, V domains shown)
VH: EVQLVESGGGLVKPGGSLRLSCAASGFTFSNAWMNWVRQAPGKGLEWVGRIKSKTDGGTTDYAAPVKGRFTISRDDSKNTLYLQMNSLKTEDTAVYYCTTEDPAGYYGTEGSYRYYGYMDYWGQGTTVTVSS
VL: NFMLTQPHSVSESPGKTVTISCTASGDTLDNKYVNWYQVRPGSAPATLIFHYEERDSGVPDRFSGSFDASSNSASLTISGLQTADEADYFCQSYDSKRDNLVVFGGGTKVTVL
notes: as for B4
B8 was tested, and the binding result [1] was “no binding (tested: log (M) -8 (1e-8 M))” and the Kd [2] was 14 nM.

B9: C0120918 human Alya IgG1 (antibody, V domains shown)
VH: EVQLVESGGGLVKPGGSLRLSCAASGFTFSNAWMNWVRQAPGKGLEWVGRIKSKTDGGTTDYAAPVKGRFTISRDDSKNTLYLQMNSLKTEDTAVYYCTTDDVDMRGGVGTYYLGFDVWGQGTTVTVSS
VL: SYELTQPPSVSVSPGQTARITCSGDALPKQYAYWYQQKPGQAPVLVIYKDSERPSGIPERFSGSSSGTTVTLTISGVQAEDEADYYCQSADSSGTWVFGGGTKVTVL
notes: as for B4
In the case of B9, the binding result [1] is reported as “no binding (tested: log (M) -8 (1e-8 M))” and the Kd [2] is reported as 9 nM.
